Patent publication US20240043507A1 (RQ BIOTECHNOLOGY, published 2024)
Changes are numbered by the printed parent chain.

B1: Fab 75 (Fab, V domains shown)
VH: QVQLVESGGGVVQPGRSLRLSCAASGFTFNNYPLHWVRQAPGKGPEWVAVISQDGGNKYYVDSVKGRFTISRDNSKNTLYLQMNNLRAEDTALYYCARDVVVVVAARNHYYNGMDVWGQGTTVTVSS
VL: DIQLTQSPSSVSASVGDRVTITCRASQGISSWLAWYQQKPGKAPKLLIYAVSSLQSGVPSRFSGSGSGTDFTLTISSLQPEDFATYYCQQAKSFPFTFGPGTKVEIK
notes: Fab
B2: mAb 45 (antibody, V domains shown)
VH: QVQLVESGGGVVQPGRSLRLSCAASGFTFSTYAMHWVRQAPGKGLEWVAVLSYDGSNKYYADSVKGRFTISRDNSKNTLYLQMNSLRAEDTAVYYCAKGGSYAYYYYMDVWGKGTTVTVSS
VL: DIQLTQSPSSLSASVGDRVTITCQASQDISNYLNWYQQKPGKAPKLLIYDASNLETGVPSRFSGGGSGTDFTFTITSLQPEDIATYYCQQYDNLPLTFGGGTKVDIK
notes: also called antibody 45
B3: antibody 88 (antibody, V domains shown)
VH: QLQLQESGPGLVKPSQTLSLTCTVSGGSISSGSYNWTWIRQPAGKGLEWIGRIYNSGSTNYNPSLKSRVTISVDTSKNQLSLKVRSVTAADTAVYYCARHCSGGTCYPKYYYGMDVWGQGTTVTVSS
VL: QSALTQPPSVSEAPRQRVTISCSGSSSNIGNNAVNWYQQFPGKAPKLLIYYDDLLPSGVSDRFSGSKSGTSASLAISGVQSEDEADYYCAAWDDSLNVVVFGGGTKLTVL
notes: also called mAb 88
B4: antibody 158 (antibody, V domains shown)
VH: EVQLLESGGDLIQPGGSLRLSCAASGVTVSSNYMSWVRQAPGKGLEWVSIIYPGGSTFYADSVKGRFTISRDNSKNTLYLQMHSLRAEDTAVYYCARDLGSGDMDVWGKGTTVTVSS
VL: DIVMTQSPSFLSASVGDRVTITCRASQGISSYLAWYQQKPGKAPKLLIQAASTLQSGVPSRFSGSGSGTEFTLTISSLQPEDFATYYCQQLNSYRYTFGQGTKVEIK
notes: also called mAb 158
B5: antibody 253H165L (antibody, V domains shown)
VH: not shown
VL: DIVMTQSPGTLSLSPGERATLSCRASQSVRSSYLAWYQQKPGQAPRLLIYGASRRGTGIPDRFSGSGSGTDFTLTISRLEPEDFAVYYCQQYGSSPWTFGQGTKVEIK
B6: antibody 165 (antibody, V domains shown)
VH: QVQLVQSGPEVKKPGTSVKVSCKASGFTFTSSAVQWVRQARGQRLEWIGWIVVGSGNTNYAQKFQESVTITRDMSTSTAYMELSSLRSEDTAVYYCAAPHCIGGSCHDAFDIWGQGTMVTVSS
VL: B5 VL
notes: also called mAb 165
B7: antibody 175 (antibody, V domains shown)
VH: EVQLVESGGGLIQPGGSLRLSCAASGLTVSRNYMSWVRQAPGKGLEWVSLIYSGGSTYYADSVKGRFTISRDNSKNTLYLQMNSLRAEDTAVYYCARDLRGEVWGQGTMVTVSS
VL: not shown
notes: also called mAb 175
B8: antibody 269 (antibody, V domains shown)
VH: QVQLVESGGGLIQPGGSLRLSCAASGLTVNRNYMSWIRQAPGKGLEWVSVIYSGGSTFYADSVKGRFTISRDNSKNTLSLQMNSLRAEDTAIYYCARDFYEGSFDIWGQGTMVTVSS
VL: AIQLTQSPSFLSASIGDRVTITCRASQGISSYLAWYQQKPGKAPKLLIYAASTLQSGVPSRFSGSGSGTEFTLTISSLQPEDFASYYCQQLNSYPAPVFGPGTKVDIK
notes: also called mAb 269
B9: antibody 278 (antibody, V domains shown)
VH: QVQLVQSGAEVKKPGASVKVSCKASGYIFIRYGISWVRQAPGQGLEWMGWISANNGYTNYAQKLQGRVTMTTDTSTSTAYMELRSLRSDDTAVYYCARDGGILTGYLDYFDHWGQGTLVTVSS
VL: DIQMTQSPSSLSASVGDRLTITCRASQSIASYLNWYQQKPGKAPKLLIYAASSLQSGVPSRFSGSGSGTDFTLTISSLQPEDFATYHCQQSYSTLGITFGPGTKVDIK
notes: also called mAb 278
B10: antibody 281 (antibody, V domains shown)
VH: QVQLVESGGGLVQPGGSLRLSCAASGFPFSIYWMSWVRQAPGKGLEWVANIKQDGSEKYYVDSVKGRFTISRDNAKNSLYLHMNSLRGEDTAVYYCASRYYDFRPEAWFDYWGQGTLVTVSS
VL: not shown
B11: antibody 318 (antibody, V domains shown)
VH: QVQLVQSGPEVKKPGTSVKVSCKASGFTLTSSAMQWVRQARGQRLEWIGWIVVGSGNTNYAQKFQERVTITRDMSTSTAYMELSSLRSEDTAVYYCAAGRGYNSDFDYWGQGTLVTVSS
VL: AIRMTQSPGTLSLSPGERATLSCRASQSVSSSYLAWYQQRPGQAPRLLIYGTSSRATGIPDRFSGSGSGTDFTLTISRLEPEDFAVYYCQQYGYSVYTFGQGTKVDIK
notes: also called mAb 318
B12: antibody 398 (antibody, V domains shown)
VH: QVQLVESGGGLVQPGGSLRLSCAASGFTVSSNYMTWVRQAPGKGLEWVSVIYSGGSTYYADSVKGRFTISRDNSKNTLYLQMNSLRADDTAVYYCARDSTADYDFWSGYYVGAFHIWGQGTMVTVSS
VL: QTVLTQPASVSGSPGQSITISCTGTSSDVGGYNYVSWYQQHPGKAPKLMIYEVTKRPSGVPDRFSGSKSGNTASLTVSGLQAEDEADYYCSSYAGSNNWVFGGGTKLTVL
notes: also called mAb 398
B13: Fab of antibody 40 (Fab, V domains shown)
VH: QVQLVESGGGLVQPGGSLRLSCAVSGFTVSRNYMSWVRQAPGKGLEWVSLIYSGGSTFYADSVKGRFTISRDNSKNTLYLQMNSLRAEDTAVYYCARDLFHRSGYHDYWGQGTLVTVSS
VL: not shown
notes: also called 40 Fab; Fab 40
B14: Fab of antibody 58 (Fab, V domains shown)
VH: QVQLVESGGGLVQPGRSLRLSCAASGFTFDDYAMHWVRQPPGKGLEWVSGVSWNSGTIGYADSVKGRFIISRDNAKNSLYLQMNSLKAEDTALYYCAREVGGTFGVLISREGGLDYWGQGTLVTVSS
VL: SYELTQPPSVSVAPGQTARITCGGNTIGSKSVHWYQQRPGQAPVLVVYDDSDRPSGIPERFSGSNSGNTATLTISRVEAGDEADYYCQVWDSSSDRVVFGGGTKLTVL
B15: Fab of antibody 88 (Fab, V domains shown)
VH: B3 VH
VL: B3 VL
notes: also called 88 Fab; Fab 88
B16: Fab of antibody 158 (Fab, V domains shown)
VH: B4 VH
VL: B4 VL
notes: also called 158 Fab; Fab 158
B17: Fab of antibody 175 (Fab, V domains shown)
VH: B7 VH
VL: not shown
B18: Fab of antibody 222 (Fab, V domains shown)
VH: EVQLVESGGGLIQPGGSLRLSCAASGLTVSSNYMSWVRQAPGKGLEWVSVIYSGGSTFYADSVKGRFTISRDNSKNTLYLQMNSLGAEDTAVYYCARGEGSPGNWFDPWGQGTLVTVSS
VL: DVVMTQSPGTLSLSPGERATLSCRASQSVPSSYLAWYQQKPGQAPRLLIYGASTRATGIPDRFSGSGSGTDFTLTISRLEPEDFAVYYCQHYDTSPRFGGGTKVDIK
B19: Fab of antibody 269 (Fab, V domains shown)
VH: B8 VH
VL: B8 VL
notes: also called 269 Fab; COVOX-269
B20: Fab of antibody 281 (Fab, V domains shown)
VH: B10 VH
VL: not shown
B21: Fab of antibody 316 (Fab, V domains shown)
VH: not shown
VL: B12 VL with T2A, A8P, V10A, I18V, T54S, N98H
notes: also called 316 Fab; Fab 316
B22: Fab of antibody 318 (Fab, V domains shown)
VH: B11 VH
VL: B11 VL
B23: Fab of antibody 398 (Fab, V domains shown)
VH: B12 VH
VL: B12 VL
B24: Fab 75 (Fab, V domains shown)
VH: B1 VH
VL: B1 VL

target: T1, SARS-CoV-2 receptor binding domain (RBD), native (SARS-CoV-2, UniProt P0DTC2 330-532); test: crystal structure
T1 construct: range 330-532

B1: binds.

target: T1, SARS-CoV-2 receptor binding domain …; test: method and antigen not stated there

B2 gave a Kd of 0.018 µg/mL.

target: T2, SARS-CoV-2 spike receptor binding domain, native (SARS-CoV-2, UniProt P0DTC2 330-532); test: BLI, RBD on AR2G biosensor, mAb as analyte
T2 construct: range 330-532

Going from B3 to B4, the Kd falls from 2.9 nM to 1.89 nM (1.5-fold). The second binds more tightly here.

First: B5
Second: B6
The Kd of the first is 1.6-fold higher: 3.38 nM for the first, 2.15 nM for the second.

Compared with B7, B8 is 1.8-fold lower in Kd: 1.36 nM for the first, 0.76 nM for the second.

Compared with B9, B10 is 4.3-fold lower in Kd: 4.16 nM for the first, 0.97 nM for the second. The second binds more tightly here.

B11 and B12 are within 1.5-fold of each other in Kd: 4.43 nM for the first, 4.63 nM for the second.

target: T3, SARS-CoV-2 receptor binding domain, native (501N) (SARS-CoV-2, UniProt P0DTC2 330-532); test: BLI, RBD immobilised on AR2G biosensor, 1:1 fit
T3 construct: range 330-532

Compared with B13, B14 is 1.8-fold lower in Kd: 0.55 nM for the first, 0.3 nM for the second. The second binds more tightly here.

B15 and B16 are within 1.5-fold of each other in Kd: 0.64 nM for the first, 0.53 nM for the second.

First: B17
Second: B18
The Kd of the first is 3.3-fold higher: 0.97 nM for the first, 0.29 nM for the second. The second binds more tightly here.

Going from B19 to B20, the Kd rises from 1.59 nM to 3.2 nM (2-fold). The first binds more tightly here.

B21 and B22 are within 1.5-fold of each other in Kd: 1.5 nM for the first, 2.23 nM for the second.

Binder B23 has a Kd of 1.02 nM.

target: T4, SARS-CoV-2 spike receptor binding domain (RBD), His-tagged (SARS-CoV-2 (Wuhan-Hu-1 strain), UniProt P0DTC2 330-532); test: X-ray crystal structure of the ternary complex RBD/Fab 253/Fab 75
T4 construct: range 330-532

B24: binds.
